# Measurements taken from the supplement of paper PMC10567573.
# ± gives the standard deviation.
# Experiment: protein stability index of a GFP-peptide fusion (GPS, HEK-293T) (PSI 1-6); higher = more stable
# Conditions: c terminus: a fixed tail appended
# 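Note: 24-mer peptide tiles fused after GFP, lentivirally expressed, FACS-sorted into six equal bins by GFP/DsRed ratio, decoded by Illumina sequencing, PSI is the read-weighted mean bin number.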
Sequence,protein stability index (treatment: DMSO),"protein stability index (treatment: MLN4924 1 uM, 8 h)"
AAARCVVLDCRPYLAFAASNVRGS [DUSP5],2.15 ± 0.55,2.2 ± 0.093
AAASPYIRTKLNYNPPKDDGSTYK [GAN],3.98 ± 0.11,3.79 ± 0.2
AAKIIPHSRVAKPHQREKIDKEIE [PLK2],5.02 ± 0.42,4.7 ± 0.4
AAKTLPGGAGKGRTPSAFPQTPAA [EHMT1],4.26 ± 0.33,4.39 ± 0.085
AAQSTKSPWNFLGDELYEQSDEEQ [CLPTM1],5.25 ± 0.19,5.35 ± 0.18
AAYSSILSSLGENPQRQGLLKTPW [GCH1],2.54 ± 0.22,2.55 ± 0.29
ADDAAAVAAKCPRLSECSSPPDYL [TRIB1],5.03 ± 0.79,5.22 ± 0.17
ADFEQKMLDSALRFQAMEETHLRH [FCHO1],3.88 ± 0.29,3.93 ± 0.24
ADFESEDEGEEFDDWEDDYDYPEE [EID1],4.62 ± 0.29,4.87 ± 0.35
ADGARSAVVAAGGGSSGQVTSNGS [CLPTM1],5.3 ± 0.065,5.09 ± 0.14
ADPLDTPPDSKEGIVVESNHDSHM [PDZK1],5.53 ± 0.1,5.36 ± 0.33
ADRAQKMDGESEEEQESVDTGEEE [EHMT1],5.78 ± 0.16,5.73 ± 0.32
ADSLQASMEKDATLNVDRKEKCVS [DLC1],5.35 ± 0.35,5.3 ± 0.25
AEITQIQSHISDMSVILSMDNNRN [KRT71],3.73 ± 0.16,3.7 ± 0.14
AENLDVKINENVAAGMRFPLPEAI [PCDHGA10],4.29 ± 0.2,4.28 ± 0.15
AEVVKILQTMLRQSAFLHLPLPEQ [INTS4],2.75 ± 0.51,2.89 ± 0.22
AFRYLSWILFPLLGCYAVYSLLYL [CLPTM1],2.29 ± 0.44,3.03 ± 0.66
AGEEDPSGMVTIITGLPLDNPSVL [SMG5],3.7 ± 0.18,3.75 ± 0.19
AGTGAQAGQLMGFFKGIDQDIERG [LYSMD4],4.01 ± 0.37,4.01 ± 0.29
AHIALETLEGHQRAIMAHMTVEEI [FLOT1],3.25 ± 0.29,3.51 ± 0.32
AHIRAERDILVEADGAWVVKMFYS [STK38L],2.24 ± 0.3,2.27 ± 0.2
AIAKQALKKPIKGKQAPRKKAQGK [KMT5A],–,4.02 ± 0.17

Sequence,protein stability index (treatment: DMSO),"protein stability index (treatment: MLN4924 1 uM, 8 h)"
AIEHFQPNADLLFSDPSQSDPETK [FCHO1],5.5 ± 0.074,5.44 ± 0.25
AILEMKWKVRAEKEACQREKELPA [ZBED2],3.47 ± 0.29,3.56 ± 0.55
AIQLLSRMEYVHSKNLIYRDVKPE [CSNK1G1],2.28 ± 0.2,2.33 ± 0.31
AISLSTGRESYIPGICVARVYHGW [SLA],2.92 ± 0.85,2.48 ± 0.92
AKECMLQEENKSLREENKALREEN [CBY2],5.55 ± 0.22,5.51 ± 0.2
ALAKKFIDKNTQLTLQVYREQADS [TRIM14],2.88 ± 0.31,3.09 ± 0.49
ALGNEGDTFHQDNQPSGLIRTYLG [RHOBTB3],3.48 ± 0.33,3.85 ± 0.37
ALLKFKPGAFIAGVPVQPVLIRYP [LPCAT4],2.54 ± 0.73,2.39 ± 0.7
ALQRLDLRNNQISHKGAEELALAL [LRRC45],3.22 ± 0.24,3.05 ± 0.43
ALRQTVEADVNGLRRVLDELTLAR [KRT16],3.18 ± 0.58,3.06 ± 0.33
ALSCHEQEMVVSSLVIGALLASLT [SLC2A12],3 ± 0.64,3.09 ± 0.29
ALSQLICFCRESRYMDQWVPVINL [GADD45A],2.95 ± 0.45,3.06 ± 0.76
ALTYACAGGYVDVVKVLLESGASI [ANKRD17],2.64 ± 0.33,2.79 ± 0.48
ALVRTRMQAQASIEGAPEVTMSSL [SLC25A25],3.6 ± 0.34,3.59 ± 0.33
ALVYLPGVIAAIVQLHNGTKYKKF [STEAP1],2.73 ± 0.44,2.75 ± 0.68
ALWQVLARDCFATGRHYWEVDVQE [TRIM14],2.4 ± 0.65,2.4 ± 0.24
AMQASKATKITLSAIYKWITDNFC [FOXJ1],2.28 ± 0.27,2.14 ± 0.23
ANPQYTVYSQASTMSIPVAMETDG [PPP2R5C],4.26 ± 0.33,4.41 ± 0.21
APDDSKAQAHRIHIDPEIQDGSPT [PDLIM4],5.59 ± 0.23,5.47 ± 0.12
APEYRGRTELLKDAIGEGKVTLRI [MOG],2.59 ± 0.2,2.72 ± 0.38
APHHHHHHSHSGPEISRIIVDPTT [PLK2],4.22 ± 0.12,4.12 ± 0.22
APLLRWVLTLSFLVATVAVGLYAM [HMOX1],2.84 ± 0.56,2.74 ± 0.69

Sequence,protein stability index (treatment: DMSO),"protein stability index (treatment: MLN4924 1 uM, 8 h)"
APLVKTLEKEEEKDLVMYSKCQRL [CDC25B],4.69 ± 0.42,4.59 ± 0.052
AQDLGLKMTDLLSRRLQLGSEENG [PCDHGC5],3.94 ± 0.22,3.77 ± 0.19
AQSRLEDPGQDLVPKQAIQVQEAD [DLX1],5.35 ± 0.18,5.32 ± 0.27
AQTPLHVAAETGHTSTARLLLHRG [RIPK4],3.89 ± 0.12,3.91 ± 0.38
ARGTPSPKRMPSGRGGRDRFTAES [FSD1],4.43 ± 0.3,4.69 ± 0.069
ATEQAATQESTFQELCEGLLEESD [NOP53],5.61 ± 0.19,5.58 ± 0.12
ATIVFATDFYLIFNDVAKFLKQGD [CMTM3],2.9 ± 0.91,2.77 ± 0.43
ATSESTTVEPGKLDVGATEGQDLQ [DRICH1],5.46 ± 0.27,5.5 ± 0.22
ATYCVRTFALYKNGSSEKREVRQF [PTPRD],2.44 ± 0.4,2.35 ± 0.39
AVAHMKYMGKGSMTGLALKHMFER [MATN2],2.07 ± 0.3,2.34 ± 0.26
AVDCKWYIRAPPRSKIYLRFLDYE [NETO1],2.43 ± 0.24,2.19 ± 0.38
AVDGILHMFTPKLDKMLDPQVWRE [SLC6A17],2.27 ± 0.34,2.53 ± 0.25
AVIYLKKTPEEAYRALLSGSNPPY [CDC14A],2.21 ± 0.44,2.15 ± 0.46
AVSCPYLPSNLLKKFRSSTSSSLG [KCNA4],2.54 ± 0.21,2.58 ± 0.2
CAGKAKRSGGHAPRVRELLLDALS [ESR2],2.38 ± 0.29,2.52 ± 0.25
CALEEYVRSQYPNQPTRFGKLLLR [NR2F2],2.22 ± 0.17,2.33 ± 0.25
CDKKAMVWDMRSGQCVQAFETHES [GNB5],3.67 ± 0.27,3.73 ± 0.29
CDYSQYFKTIEELRDKIMATTIDN [KRT15],3.28 ± 0.12,3.22 ± 0.17
CFIQSSHLIRHQITHTREEQPHGR [ZNF8],3.4 ± 0.12,3.37 ± 0.23
CGHTFCRLCLPALSQMGAQSSGKI [TRIM15],2.12 ± 0.42,2.36 ± 0.46
CKAFSTCVSHLIIVTVHYGCASFI [OR10K2],2.88 ± 0.54,3.01 ± 0.57
